These results are taken from paper PMC10706272, “Improving the Thermostability of Thermomyces lanuginosus Lipase by Restricting the Flexibility of N-Terminus and C-Terminus Simultaneously via the 25-Loop Substitutions” (International Journal of Molecular Sciences, 2023).

Usually Km stands for the substrate concentration at which the rate is half of its maximum. Usually Vmax stands for the top rate of the reaction or transport when substrate is in excess. Usually kcat stands for the number of substrate molecules converted per active site and unit of time at saturation. By kcat/Km is commonly meant the second-order rate constant that governs catalysis at low substrate concentration.

The series has as its system CCCCCCCCCCCCCCCC(=O)Oc1ccc([N+](=O)[O-])cc1. The experiment in a line: initial-rate hydrolysis of pNPP, p-nitrophenol release, Michaelis-Menten fit. The note with it: 37 °C, pH 9.0, Tris-HCl 100 mM, apparent Km, pNPP 0.25-10 mM. The class given is biochemical, Thermomyces lanuginosus. From the text: initial-rate hydrolysis of pNPP, p-nitrophenol release, Michaelis-Menten fit on TLL (Thermomyces lanuginosus lipase)
Take “TLL (Thermomyces lanuginosus lipase) (Thermomyces lanuginosus; K46S)”: the Michaelis-Menten constant (Km) came to 310 ± 20 µM, the maximum rate (Vmax) is 681 µmol/min/mg, the kcat is 1380 ± 22 s⁻¹ and the kcat/Km came out at 4.48e+06 ± 157000 M⁻¹ s⁻¹.
In the case of “TLL (Thermomyces lanuginosus lipase) (Thermomyces lanuginosus; D49R)”, the Michaelis constant (Km) amounted to 360 ± 10 µM, the Vmax was 828 µmol/min/mg, the kcat turned out to be 1900 ± 21 s⁻¹ and the kcat/Km was determined as 5.24e+06 ± 118000 M⁻¹ s⁻¹.
Turning to “TLL (Thermomyces lanuginosus lipase) (Thermomyces lanuginosus; D49N)”, the Km is 220 ± 20 µM, the maximal velocity (Vmax) turned out to be 396 µmol/min/mg, the kcat stood at 777 ± 5 s⁻¹ and the specificity constant (kcat/Km) was determined as 3.503e+06 ± 31000 M⁻¹ s⁻¹.
“TLL (Thermomyces lanuginosus lipase) (Thermomyces lanuginosus; P51S)”: the Km was 290 ± 30 µM, the Vmax amounted to 668 µmol/min/mg, the kcat amounted to 1354 ± 9 s⁻¹ and the kcat/Km came out at 4.747e+06 ± 28000 M⁻¹ s⁻¹.
In the same order, the values of “TLL (Thermomyces lanuginosus lipase) (Thermomyces lanuginosus; A52P)” are 240 ± 20 µM, 503 µmol/min/mg, 1036 ± 4 s⁻¹ and 4.383e+06 ± 42000 M⁻¹ s⁻¹.
